From article doi:10.1101/2023.06.13.544862

Experiments:
[1] = biological target: EED labelled for microscale thermophoresis (human) (UniProt O75530); assay: MST
[2] = biological target: JMJD3 JmjC domain labelled for microscale thermophoresis (UniProt O15054); assay: MST
Sequence of JMJD3 JmjC domain labelled for microscale thermophoresis (O15054 1339-1502): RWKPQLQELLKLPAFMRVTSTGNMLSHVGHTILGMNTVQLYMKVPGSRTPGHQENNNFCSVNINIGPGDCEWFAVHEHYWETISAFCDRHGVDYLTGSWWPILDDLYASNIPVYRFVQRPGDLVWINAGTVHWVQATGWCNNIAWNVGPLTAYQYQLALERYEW

Sequence of EED labelled for microscale thermophoresis (human) (O75530 whole entry, the tested form may be a part): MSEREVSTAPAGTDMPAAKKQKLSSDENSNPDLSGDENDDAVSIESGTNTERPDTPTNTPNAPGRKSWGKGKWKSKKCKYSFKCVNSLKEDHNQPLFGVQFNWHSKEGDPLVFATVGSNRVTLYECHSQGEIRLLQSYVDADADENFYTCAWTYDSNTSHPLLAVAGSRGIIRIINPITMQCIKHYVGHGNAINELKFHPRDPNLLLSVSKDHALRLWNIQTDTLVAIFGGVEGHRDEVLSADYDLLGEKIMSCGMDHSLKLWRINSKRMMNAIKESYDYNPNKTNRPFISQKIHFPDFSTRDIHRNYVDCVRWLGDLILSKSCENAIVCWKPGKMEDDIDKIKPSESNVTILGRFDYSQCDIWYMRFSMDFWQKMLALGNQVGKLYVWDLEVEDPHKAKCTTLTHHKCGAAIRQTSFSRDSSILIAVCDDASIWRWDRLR

Row | Kd [1] | Kd [2] | Substance
1 | 0.95 µM | 8.59 µM | H3K27me3 peptide
2 | 1.21 µM |  | NOP16 aa 25-32 peptide, tri-methylated K29 (from UniProt Q9Y3C1 25-32)
3 | 131 µM |  | NOP16 aa 25-32 peptide, di-methylated K29 (from UniProt Q9Y3C1 25-32)
4 | 11.6 µM |  | NOP16 aa 25-32 peptide, unmethylated K29 (from UniProt Q9Y3C1 25-32)
5 | 100 µM |  | NOP16 aa 25-32 peptide, mono-methylated K29 (from UniProt Q9Y3C1 25-32)
